Measurements reported in paper PMC8678608, “A Novel Bispecific Antibody Targeting PD-L1 and VEGF With Combined Anti-Tumor Activities” (Frontiers in Immunology, 2021).

What was measured:
[1] = target: T1, human VEGF165 protein (human); test: SPR; Biacore 8K, 25 °C; antibody or fusion protein captured by anti-human IgG (Fc) on a CM5 chip; analyte (VEGF165 from 3 nM or PD-L1 from 50 nM, 2-fold titrations) injected 120 s, dissociation 1800 s, 30 μL/min; single-cycle kinetics, 1:1 model; no enhancement step (buffer); details: both partners purified
T1 construct: human VEGF-A, the 165-residue isoform VEGF165; also called VEGF dimer; source: bought: Sino Biological Inc. (11066-HNAH)

[2] = target: T1, human VEGF165 protein; test: ELISA; plates coated with recombinant human PD-L1 or VEGF165 (100 ng/well, carbonate buffer); antibody 1 h at room temperature; detected with HRP goat anti-human Fc, TMB, 450 nm; details: both partners purified
[3] = target: T2, human PD-L1 (Homo sapiens (Human)., UniProt Q9NZQ7); test: SPR; valence: HB0025 (300 RU), HB0023 (250 RU) or HB002.1T (200 RU) captured; 200 nM PD-L1 injected twice for 60 s, then 10 nM VEGF165 twice for 60 s; stoichiometric ratio from response units and molecular weights; running buffer pH 7.4; details: both partners purified
T2 construct: human PD-L1, recombinant; also called PD-L1 monomer; programmed cell death-ligand 1; source: bought: ACRO Biosystems (449-9AWF1-RA)

[4] = target: T2, human PD-L1; test: SPR; as a1, but 10 nM human VEGF165 injected first to saturate VEGF binding by captured HB0025, then PD-L1 as analyte; details: both partners purified
[5] = target: T2, human PD-L1; test: SPR; Biacore 8K, 25 °C; antibody or fusion protein captured by anti-human IgG (Fc) on a CM5 chip; analyte (VEGF165 from 3 nM or PD-L1 from 50 nM, 2-fold titrations) injected 120 s, dissociation 1800 s, 30 μL/min; single-cycle kinetics, 1:1 model; no enhancement step (buffer); details: both partners purified
[6] = target: T2, human PD-L1; test: cell-based or functional assay
[7] = target: T2, human PD-L1; test: ELISA; plates coated with recombinant human PD-L1 or VEGF165 (100 ng/well, carbonate buffer); antibody 1 h at room temperature; detected with HRP goat anti-human Fc, TMB, 450 nm; details: both partners purified

T2 sequence (Q9NZQ7 19-238): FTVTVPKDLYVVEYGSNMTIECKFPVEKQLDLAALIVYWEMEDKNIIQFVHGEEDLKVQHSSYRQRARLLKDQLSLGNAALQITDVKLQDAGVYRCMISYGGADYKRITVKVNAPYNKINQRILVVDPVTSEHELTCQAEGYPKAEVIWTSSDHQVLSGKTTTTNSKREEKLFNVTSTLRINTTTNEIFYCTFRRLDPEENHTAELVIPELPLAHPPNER

Kd [1] [nM] | koff [1] [s⁻¹] | kon [1] [M⁻¹ s⁻¹] | EC50 [2] [nM] | stoichiometry N [3] [PD-L1 monomers per HB0025] | Kd [4] [nM] | koff [4] [s⁻¹] | kon [4] [M⁻¹ s⁻¹] | Kd [5] [nM] | koff [5] [s⁻¹] | kon [5] [M⁻¹ s⁻¹] | EC50 of the recovery of IL-2 secretion in a mixed lymphocyte reaction (DCs and PBMCs, 3.8 pM-25 nM antibody); blocks PD-1/PD-L1 [6] [pM] | EC50 [7] [nM] | Binder
0.00111 | 5.03e-05 | 4.54e+07 | 0.17 |  |  |  |  |  |  |  |  |  | HB002.1T (VEGFR1D2-Ig fusion protein) (Fc fusion, Fc-dimerised fusion: D2 at the N-terminus of IgG Fc, with Fc and any linker left out. Limits are inferred from HB0025 numbering, assuming HB002.1T has the same D2. N36/N68 and the N99-T100 cleavage …) SDTGRPFVEMYSEIPEIIHMTEGRELVIPCRVTSPNITVTLKKFPLDTLIPDGKRIIWDSRKGFIISNATYKEIGLLTCEATVNGHLYKTNYLTHRQTNTIID
 |  |  |  | ~1.7 | 1.98 | 0.000395 | 200000 | 1.76 | 0.00051 | 290000 | ~509 | 0.67 | HB0025 (anti-PD-L1/VEGFR1D2-Ig fusion protein) (bispecific antibody, V domains shown, soluble extracellular domain 2 of human VEGF receptor 1 (VEGFR1D2); humanized VH of the parent anti-PD-L1 antibody HB0023; human IgG1 heavy constant domains, as in the heavy chain of HB0023; IgG1-like mAb-Trap format; Clinical trial NCT04678908; also called bispecific antibody; BsAb; copies: 2 +) VH: QVQLVQSGAEVKKPGASVKVSCKASGYAFTGYTIHWVRQAPGQRLEWMGWFYPGSGTLKYSEKFQGRVTITRDKSLSTAYMELSSLRSEDTAVYYCARHGTGTLMAMDYWGQGTLVTVSS VL: DVVMTQTPLSLSVTPGQPASISCKSSQSLANSYGNTYLSWYLHKPGQSPQLLIYGISNRFSGVPDRFSGSGSGTDFTLKISRVEAEDVGVYYCLQGTHQPPTFGQGTKLEIK
